From publication PMC4263443

Legend:
[1] = target: recombinant S5aΔVWA (human); experiment: ITC
[2] = target: recombinant full-length S5a (human) (UniProt P55036); experiment: ITC
Chain of UniProt P55036 (P55036 whole entry): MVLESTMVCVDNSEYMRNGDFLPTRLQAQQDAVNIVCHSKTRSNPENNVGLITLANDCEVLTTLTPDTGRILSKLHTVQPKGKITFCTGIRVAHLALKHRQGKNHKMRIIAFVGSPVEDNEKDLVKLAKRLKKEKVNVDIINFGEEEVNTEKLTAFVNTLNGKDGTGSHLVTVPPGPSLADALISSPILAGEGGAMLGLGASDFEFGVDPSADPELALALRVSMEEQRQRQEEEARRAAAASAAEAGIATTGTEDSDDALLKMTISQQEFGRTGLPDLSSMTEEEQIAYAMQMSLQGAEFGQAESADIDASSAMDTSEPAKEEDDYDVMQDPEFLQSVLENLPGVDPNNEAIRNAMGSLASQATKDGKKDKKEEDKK

Substance | Kd [1] | Kd [2]
monoubiquitin (from UniProt P0CG47 1-76) (natural protein) | 84 µM | –
monoubiquitin (from UniProt P0CG47 1-76) (natural protein; other documents disagree on this pair) | – | 112 µM
